Consider three compounds from patent US20200308286A1, “METHODS, COMPOSITIONS, AND KITS FOR TREATMENT OF CANCER” (Fusion Pharmaceuticals, Inc., priority 2017, published 2020).

In series [1] the test system is human UM-UC-1 bladder cancer cell line. The series is described as follows: Conditional survival study (tumor growth delay) in UM-UC-1 bladder cancer xenograft mice. It counts as in vivo. The note with it: administered as single agent. As to the method: Efficacy was assessed using tumor growth delay in a conditional survival study.
The nature of series [2]: Phase 1b/2 study of B-701 and docetaxel in advanced UCC, Cohort 1: safety. The note with it: Cohort 1, n=19, B-701 given with docetaxel.
Procedure: Docetaxel was administered intravenously over approximately 60 minutes at a dosage of 75 mg/m^2. […] Administration was carried out every 3 weeks (q3w). […] The primary objective was to evaluate progression-free survival (PFS) and safety. Secondary objectives included evaluation of overall response rate (ORR), duration of response (DOR), disease control rate (DCR), and overall survival (OS). Each of these objectives was evaluated for correlations with FGFR3 expression and/or FGFR3 mutations/fusions.
Series [3] has as its system other FGFRs. As to conditions: cited from earlier work.
The test system of series [4] is cancers expressing both wild-type and genetically activated forms of FGFR3. As to conditions: Du 2011; cited from earlier work.
[5] abbreviates: resolved after docetaxel was discontinued.

Regarding `CC(=O)O[C@H]1C(=O)[C@@]2(C)[C@H]([C@H](OC(=O)c3ccccc3)[C@]3(O)C[C@H](OC(=O)[C@H](O)[C@@H](NC(=O)c4ccccc4)c4ccccc4)C(C)=C1C3(C)C)[C@]1(OC(C)=O)CO[C@@H]1C[C@@H]2O` [paclitaxel], the “survival of tumor bearing UM-UC-1 xenograft mice” value (“survival” below) in series [1] is listed as “significantly extended survival”.
For “B-701: human FGFR3 antagonistic monoclonal antibody MFGR1877S (CAS No. 1312305-12-6), human IgG1 backbone; heavy chain SEQ ID NO:9, light chain SEQ ID NO:10”, the “survival” value in series [1] is “significantly extended survival”. In series [2], the “Grade 3 or higher AE related to B-701: Colitis, # of subjects” value turned out to be 1 subjects; the “Grade 3 or higher AE related to B-701: Colitis, % of subjects” value is listed as “(5%)”; the “Grade 3 or higher AE related to B-701: DIC, # of subjects” value is reported as 1 subjects; the “Grade 3 or higher AE related to B-701: DIC, % of subjects” value was “(5%)”. Besides, in series [2], the “Grade 3 or higher AE related to B-701: Decreased WBCs, # of subjects” value is listed as 2 subjects; the “Grade 3 or higher AE related to B-701: Decreased WBCs, % of subjects” value was “(11%)”; the “Grade 3 or higher AE related to B-701: Decreased lymphocytes, # of subjects” value is 1 subjects; the “Grade 3 or higher AE related to B-701: Decreased lymphocytes, % of subjects” value is “(5%)”. Besides, in series [2], the “Grade 3 or higher AE related to B-701: Decreased neutrophil count, # of subjects” value came out at 4 subjects; the “Grade 3 or higher AE related to B-701: Decreased neutrophil count, % of subjects” value was “(21%)”; the “Grade 3 or higher AE related to B-701: Diarrhea, # of subjects” value is listed as 1 subjects; the “Grade 3 or higher AE related to B-701: Diarrhea, % of subjects” value is on record as “(5%)”. In series [2], the “Grade 3 or higher AE related to B-701: Fatigue, # of subjects” value is recorded as 1 subjects; the “Grade 3 or higher AE related to B-701: Fatigue, % of subjects” value is “(5%)”; the “Grade 3 or higher AE related to B-701: Hyponatremia, # of subjects” value is given as 1 subjects; the “Grade 3 or higher AE related to B-701: Hyponatremia, % of subjects” value was “(5%)”. For the same compound, in series [2], the “Grade 3 or higher AE related to B-701: Thrombocytopenia, # of subjects” value was found to be 1 subjects and the “Grade 3 or higher AE related to B-701: Thrombocytopenia, % of subjects” value is on record as “(5%)”. In addition, in series [2] (setting [5]), the “Grade 3 or higher AE related to B-701: ALT elevation, # of subjects” value is 1 subjects; the “Grade 3 or higher AE related to B-701: ALT elevation, % of subjects” value is given as “(5%)”; the “Grade 3 or higher AE related to B-701: AST elevation, # of subjects” value is reported as 1 subjects; the “Grade 3 or higher AE related to B-701: AST elevation, % of subjects” value is given as “(5%)”. Besides, the “cross-reactivity with other FGFRs” value in series [3] is “no cross-reactivity”. Moreover, in series [4], the efficacy result is given as “efficacious”.
On to `Nc1ccn([C@@H]2O[C@H](CO)[C@@H](O)C2(F)F)c(=O)n1` [gemcitabine], for which the “survival” value in series [1] is given as “significantly extended survival”.
